Usually Kd stands for the constant that tells how readily two partners part at equilibrium. Low values mean a tighter complex, high ones a looser complex.

Data on 2 molecules can be found in patent US20220213225A1 (INVENRA, published 2022).

The target in assay [1] is T1, CTLA4 (antigen immobilised on the biosensor) (human, UniProt P16410 36-161, biotinylated in Examples 30 and 35).
T1 construct: also called hCTLA4; biotinylated human CTLA4
The assay can be described thus: Octet biolayer interferometry; antigen immobilised, B-Body as analyte. A general note: BLI is a label-free optical method that tracks binding on a fibre tip over time.

Assay [2] concerns the target T1, CTLA4 (antigen immobilised on the …). In words: BLI steady state analysis, biotinylated CTLA4 on streptavidin sensor, two-fold dilutions of the binding molecule from 2 µM to 31.25 nM; monovalent.

T1 sequence (P16410 36-161 limits assumed): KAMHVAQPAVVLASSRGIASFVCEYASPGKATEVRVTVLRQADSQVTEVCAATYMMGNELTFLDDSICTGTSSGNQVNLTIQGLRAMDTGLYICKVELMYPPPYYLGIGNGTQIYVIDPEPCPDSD

B1: bivalent bispecific B-Body “BC1” (PD1 x Antigen A) (bispecific antibody)
chain 1: not shown
chain 2: EVQLVESGGGLVQPGGSLRLSCAASGFTFSDYDIHWVRQAPGKGLEWVGDITPYDGTTNYADSVKGRFTISADTSKNTAYLQMNSLRAEDTAVYYCARLVGEIATGFDYWGQGTLVTVSSASPREPQVYTDPPSRDELTKNQVSLTCLVKGFYPSDIAVEWESNGQPENNYKTTPPVLDSDGSFFLYSKLTVDKSRWQQGNVFSCSVMHEALHNHYTQKSLSLSGEC
chain 3: not shown
chain 4: QVQLVESGGGVVQPGRSLRLDCKASGITFSNSGMHWVRQAPGKGLEWVAVIWYDGSKRYYADSVKGRFTISRDNSKNTLFLQMNSLRAEDTAVYYCATNDDYWGQGTLVTVSSASTKGPSVFPLAPSSKSTSGGTAALGCLVKDYFPEPVTVSWNSGALTSGVHTFPAVLQSSGLYSLSSVVTVPSSSLGTQTYICNVNHKPSNTKVDKKVEPPKSC
notes: Chains 1+2 form the Antigen A site, chains 3+4 the PD1 site (nivolumab variable domains)
For the molecule B1, the binding result in assay [1] is on record as “no binding (tested: not given on the sheet)”.

B2: BC1 1×1 B-Body SNIPER 19×8 binding molecule (CTLA4-19 x CD25-8) (bispecific antibody)
chain 1: not shown
chain 2: EVQLVESGGGLVQPGGSLRLSCAASGFTFSGYWIHWVRQAPGKGLEWVAAITSRDSYTYYADSVKGRFTISADTSKNTAYLQMNSLRAEDTAVYYCARGSYLGSAFDYWGQGTLVTVSSASPREPQVYTDPPSRDELTKNQVSLTCLVKGFYPSDIAVEWESNGQPENNYKTTPPVLDSDGSFFLYSKLTVDKSRWQQGNVFSCSVMHEALHNHYTQKSLSLSGEC
chain 3: SDIQMTQSPSSLSASVGDRVTITCRASQSVSSAVAWYQQKPGKAPKLLIYSASSLYSGVPSRFSGSRSGTDFTLTISSLQPEDFATYYCQQYSSQPATFGQGTKVEIKRTVAAPSVFIFPPSDEQLKSGTASVVCLLNNFYPREAKVQWKVDNALQSGNSQESVTEQDSKDSTYSLSSTLTLSKADYEKHKVYACEVTHQGLSSPVTKSFNRGECDKTHTCPPCPAPELLGGPSVFLFPPKPKDTLMISRTPEVTCVVVDVSHEDPEVKFNWYVDGVEVHNAKTKPREEQYNSTYRVVSVLTVLHQDWLNGKEYKCKVSNKALPAPIEKTISKAKGQPREPQVCTLPPSREEMTKNQVSLSCAVKGFYPSDIAVEWESNGQPENNYKTTPPVLDSDGSFFLVSKLTVDKSRWQQGNVFSCSVMHEALHNHYTQKSLSLSPGK
chain 4: EVQLVESGGGLVQPGGSLRLSCAASGFTFSSYYIHWVRQAPGKGLEWVAKIQPKGGYTYYADSVKGRFTISADTSKNTAYLQMNSLRAEDTAVYYCARSYYYRPHAFDYWGQGTLVTVSSASTKGPSVFPLAPSSKSTSGGTAALGCLVKDYFPEPVTVSWNSGALTSGVHTFPAVLQSSGLYSLSSVVTVPSSSLGTQTYICNVNHKPSNTKVDKKVEPPKSC
Consider B2, for which binding in assay [2] was characterised by a dissociation constant (Kd) of 19 nM.
